Data published in patent US20180155451A1 (published 2018).

T1: FcγRIIb (human, UniProt P31994 43-217)
T1 construct: extracellular domain; also called FcgRIIb; 2b
T1 sequence (looked up): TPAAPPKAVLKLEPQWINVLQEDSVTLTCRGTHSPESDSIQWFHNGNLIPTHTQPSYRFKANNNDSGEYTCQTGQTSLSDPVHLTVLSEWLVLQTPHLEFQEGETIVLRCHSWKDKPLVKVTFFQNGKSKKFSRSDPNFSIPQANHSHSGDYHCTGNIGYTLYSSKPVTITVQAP

B1: GpH7-A5/GpH7-B3 variant (E269_02A)/GpL16-k0 (antibody, human IgG1, kappa)
heavy 1: not shown
heavy 2: not shown
light: DIVMTQSPLSLPVTPGEPASISCQASESLVHSNRNTYLHWYLQKPGQSPQLLIYKVSNRFSGVPDRFSGSGSGTDFTLKISRVEAEDVGVYYCSQNTHVPPTFGQGTKVEIERTVAAPSVFIFPPSDEQLKSGTASVVCLLNNFYPREAKVQWKVDNALQSGNSQESVTEQDSKDSTYSLSSTLTLSKADYEKHKVYACEVTHQGLSSPVTKSFNRGEC
notes: IgG1 heterodimer, mutation in the GpH7-B3 chain only; also called He Ab
B2: GpH7-A5/GpH7-B3 variant (E269_03V)/GpL16-k0 (antibody, human IgG1, kappa)
heavy 1: not shown
heavy 2: not shown
light: B1 light
notes: as for B1
B3: GpH7-A5/GpH7-B3 variant (E269_04F)/GpL16-k0 (antibody, human IgG1, kappa)
heavy 1: not shown
heavy 2: not shown
light: B1 light
notes: as for B1
B4: GpH7-A5/GpH7-B3 variant (E269_05P)/GpL16-k0 (antibody, human IgG1, kappa)
heavy 1: not shown
heavy 2: not shown
light: B1 light
notes: as for B1
B5: GpH7-A5/GpH7-B3 variant (E269_06M)/GpL16-k0 (antibody, human IgG1, kappa)
heavy 1: not shown
heavy 2: not shown
light: B1 light
notes: as for B1
B6: GpH7-A5/GpH7-B3 variant (E269_07I)/GpL16-k0 (antibody, human IgG1, kappa)
heavy 1: not shown
heavy 2: not shown
light: B1 light
notes: as for B1
B7: GpH7-A5/GpH7-B3 variant (E269_08L)/GpL16-k0 (antibody, human IgG1, kappa)
heavy 1: not shown
heavy 2: not shown
light: B1 light
notes: as for B1
B8: GpH7-A5/GpH7-B3 variant (E269_13S)/GpL16-k0 (antibody, human IgG1, kappa)
heavy 1: not shown
heavy 2: not shown
light: B1 light
notes: as for B1
B9: GpH7-A5/GpH7-B3 variant (E269_14T)/GpL16-k0 (antibody, human IgG1, kappa)
heavy 1: not shown
heavy 2: not shown
light: B1 light
notes: as for B1
B10: GpH7-A5/GpH7-B3 variant (E269_15Y)/GpL16-k0 (antibody, human IgG1, kappa)
heavy 1: not shown
heavy 2: not shown
light: B1 light
notes: as for B1
B11: GpH7-A5/GpH7-B3 variant (E269_16H)/GpL16-k0 (antibody, human IgG1, kappa)
heavy 1: not shown
heavy 2: not shown
light: B1 light
notes: as for B1
B12: GpH7-A5/GpH7-B3 variant (E269_18N)/GpL16-k0 (antibody, human IgG1, kappa)
heavy 1: not shown
heavy 2: not shown
light: B1 light
notes: as for B1
B13: GpH7-A5/GpH7-B3 variant (E269_19Q)/GpL16-k0 (antibody, human IgG1, kappa)
heavy 1: not shown
heavy 2: not shown
light: B1 light
notes: as for B1
B14: GpH7-A5/GpH7-B3 variant (E269_20W)/GpL16-k0 (antibody, human IgG1, kappa)
heavy 1: not shown
heavy 2: not shown
light: B1 light
notes: as for B1
B15: GpH7-A5/GpH7-B3 variant (G236_02A)/GpL16-k0 (antibody, human IgG1, kappa)
heavy 1: not shown
heavy 2: not shown
light: B1 light
notes: as for B1
B16: GpH7-A5/GpH7-B3 variant (G236_03V)/GpL16-k0 (antibody, human IgG1, kappa)
heavy 1: not shown
heavy 2: not shown
light: B1 light
notes: as for B1
B17: GpH7-A5/GpH7-B3 variant (G236_04F)/GpL16-k0 (antibody, human IgG1, kappa)
heavy 1: not shown
heavy 2: not shown
light: B1 light
notes: as for B1
B18: GpH7-A5/GpH7-B3 variant (G236_05P)/GpL16-k0 (antibody, human IgG1, kappa)
heavy 1: not shown
heavy 2: not shown
light: B1 light
notes: as for B1
B19: GpH7-A5/GpH7-B3 variant (G236_06M)/GpL16-k0 (antibody, human IgG1, kappa)
heavy 1: not shown
heavy 2: not shown
light: B1 light
notes: as for B1
B20: GpH7-A5/GpH7-B3 variant (G236_07I)/GpL16-k0 (antibody, human IgG1, kappa)
heavy 1: not shown
heavy 2: not shown
light: B1 light
notes: as for B1

The binders below were run against T2, FcγRIa (human, UniProt P12314 16-292) (assay: SPR, captured antibody; relative to GpH7-A5/GpH7-B3/GpL16-k0).
T2 construct: extracellular domain; also called FcgRI; 1a
T2 sequence (P12314 16-292): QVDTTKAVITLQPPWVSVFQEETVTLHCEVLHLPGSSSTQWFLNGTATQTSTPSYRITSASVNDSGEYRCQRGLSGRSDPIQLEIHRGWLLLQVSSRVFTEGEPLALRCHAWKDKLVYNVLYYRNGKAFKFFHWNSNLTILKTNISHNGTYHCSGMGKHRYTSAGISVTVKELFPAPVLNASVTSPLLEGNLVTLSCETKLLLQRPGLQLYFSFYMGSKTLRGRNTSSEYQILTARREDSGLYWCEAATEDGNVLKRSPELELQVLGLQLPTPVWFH

| Binder | He/Con_1a |
| --- | --- |
| B1 | 104 relative, HeCon Ab = 100 |
| B2 | 103 relative, HeCon Ab = 100 |
| B3 | 103 relative, HeCon Ab = 100 |
| B4 | 102 relative, HeCon Ab = 100 |
| B5 | 104 relative, HeCon Ab = 100 |
| B6 | 103 relative, HeCon Ab = 100 |
| B7 | 104 relative, HeCon Ab = 100 |
| B8 | 103 relative, HeCon Ab = 100 |
| B9 | 106 relative, HeCon Ab = 100 |
| B10 | 106 relative, HeCon Ab = 100 |
| B11 | 106 relative, HeCon Ab = 100 |
| B12 | 102 relative, HeCon Ab = 100 |
| B13 | 105 relative, HeCon Ab = 100 |
| B14 | 105 relative, HeCon Ab = 100 |
| B15 | 100 relative, HeCon Ab = 100 |
| B16 | 89.9 relative, HeCon Ab = 100 |
| B17 | 96.4 relative, HeCon Ab = 100 |
| B18 | 77 relative, HeCon Ab = 100 |
| B19 | 96.7 relative, HeCon Ab = 100 |
| B20 | 87.5 relative, HeCon Ab = 100 |

These binders were tested against T1, FcγRIIb in the same assay as above.

| Binder | He/Con_2b |
| --- | --- |
| B1 | 49.9 relative, HeCon Ab = 100 |
| B2 | 45.1 relative, HeCon Ab = 100 |
| B3 | 45 relative, HeCon Ab = 100 |
| B4 | 52.6 relative, HeCon Ab = 100 |
| B5 | 46.7 relative, HeCon Ab = 100 |
| B6 | 43.9 relative, HeCon Ab = 100 |
| B7 | 42.9 relative, HeCon Ab = 100 |
| B8 | 47.8 relative, HeCon Ab = 100 |
| B9 | 50.6 relative, HeCon Ab = 100 |
| B10 | 44.7 relative, HeCon Ab = 100 |
| B11 | 38.5 relative, HeCon Ab = 100 |
| B12 | 44.8 relative, HeCon Ab = 100 |
| B13 | 44.3 relative, HeCon Ab = 100 |
| B14 | 42.5 relative, HeCon Ab = 100 |
| B15 | 96.5 relative, HeCon Ab = 100 |
| B16 | 35.3 relative, HeCon Ab = 100 |
| B17 | 39.3 relative, HeCon Ab = 100 |
| B18 | 19 relative, HeCon Ab = 100 |
| B19 | 45.5 relative, HeCon Ab = 100 |
| B20 | 31 relative, HeCon Ab = 100 |
